Assay results taken from patent publication US12427163B2, “Anti-VTCN1 antibodies and antibody drug conjugates” (Bluefin BioMedicine, Inc., priority 2017, dated 2025).

T1: VTCN1 IgV domain (Homo sapiens, UniProt Q7Z7D3)
T1 construct: one with an IgV domain only and one with an IgC domain only; expressed in transfected cells
T1 sequence (Q7Z7D3 35-146 limits assumed): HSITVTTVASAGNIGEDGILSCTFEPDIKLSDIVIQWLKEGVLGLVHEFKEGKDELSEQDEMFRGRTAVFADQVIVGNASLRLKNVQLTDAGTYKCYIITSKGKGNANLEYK

T2: 293-VTCN1 (mouse) (Mus musculus, UniProt Q7TSP5)
T2 construct: expressed in transfected cells
T2 sequence (Q7TSP5 25-257): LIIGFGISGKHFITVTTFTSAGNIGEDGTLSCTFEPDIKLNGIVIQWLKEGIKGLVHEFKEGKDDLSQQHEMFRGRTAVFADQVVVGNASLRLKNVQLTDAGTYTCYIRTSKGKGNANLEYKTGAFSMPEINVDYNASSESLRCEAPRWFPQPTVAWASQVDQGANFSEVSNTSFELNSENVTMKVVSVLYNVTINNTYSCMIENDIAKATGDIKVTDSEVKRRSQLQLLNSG

T3: VTCN1 IgC domain (Homo sapiens, UniProt Q7Z7D3)
T3 construct: one with an IgV domain only and one with an IgC domain only; expressed in transfected cells
T3 sequence (Q7Z7D3 153-241 limits assumed): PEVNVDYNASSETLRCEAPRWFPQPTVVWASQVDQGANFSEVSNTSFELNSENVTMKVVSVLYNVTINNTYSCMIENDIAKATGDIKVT

T4: 293-VTCN1 cells (Homo sapiens, UniProt Q7Z7D3)
T4 construct: 293-VTCN1 (full length); expressed in transfected cells; host or cells: HEK293
T4 sequence (Q7Z7D3 25-282): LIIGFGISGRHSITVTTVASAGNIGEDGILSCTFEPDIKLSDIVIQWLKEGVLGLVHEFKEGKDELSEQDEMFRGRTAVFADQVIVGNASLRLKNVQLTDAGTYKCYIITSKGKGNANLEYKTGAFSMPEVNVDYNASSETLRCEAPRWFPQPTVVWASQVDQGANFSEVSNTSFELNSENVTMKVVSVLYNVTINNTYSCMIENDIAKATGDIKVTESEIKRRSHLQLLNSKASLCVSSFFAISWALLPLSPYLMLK


Experiments:
human monocytes = assay: Cytokine treatment of monocytes, expression of VTCN1, PD-L1, CD80 by flow cytometry; format: cell-based; conditions: 24, 48, or 73 hours
Description: VTCN1 is expressed in monocytes and macrophages in a tumor microenviroment, the expression induced by cytokines in tumor microenviroment. VTCN1 positive macrophages inhibit T cell activation. Monocytes from healthy donors were treated with IFNγ and IL-6 to assess VTCN1 expression. Monocytes were enriched from fresh PBMC from healthy donor using a monocyte enrichment kit from Stemcell Technologies, and the purity of the obtained monocytes is greater than 95%. Monocytes were cultured in 24 well plate with different concentration of INFγ or LI-6 for 24, 48, or 73 hours, expression of VTCN1, PD-L1, and CD80 was assessed by flow cytometry. […] CD80 was expressed at low level in monocytes, and is not very responsive to cytokine treatment.

293-VTCN1 (monkey) = assay: Flow cytometry binding to 293-VTCN1 (monkey) cells; set-up: species or system cynomolgus monkey
Description: (§1) Two constructs were made, one with an IgV domain only and one with an IgC domain only. 293 cells were transfected with VTCN1-IgV and VTCN1-IgC constructs, and stable cell lines of 293 expressing VTCN1-IgV or VTCN1-IgC domains were made. Expression constructs also made to express VTCN1 (monkey, 99% identical to human VTCN1) and VTCN1 (mouse, 88% identical to human VTCN1), stable 293-VTCN1 (monkey), and 293-VTCN1 (mouse) cell lines made by transfecting these constructs.
(§2) Flow cytometry analysis was also performed with 7C8 binding to 293-VTCN1 (monkey) and 293-VTCN1 (mouse).

MX-1 cells = assay: Flow cytometry binding to MX-1 cells; set-up: species or system human; conditions: TNBC cell line
Description: (§3) Supernatant from hybridoma wells, containing VTCN1 specific antibodies, were re-tested on human breast cell lines SKBR3 and ZR-75-1. 70% confluent MX-1 cells in 10 cm dish were gently washed with 1× cold PBS once, 7 ml cold flow buffer (1×PBS, 0.5% BSA, 2 mM EDTA) was then added, the cells were gently scraped in to flow buffer using rubber cell lifter, pipet up down with 10 ml transfer pipets gently to resuspend the cells. The cells were pelleted by centrifuging them for 5 minutes at 1200 rpm at room temperature. The cell pellets were resuspended in cold flow buffer, the cells were counted and the concentration was adjusted to 1×10^6 cells per 1 mL. Using a multichannel pipette, 200 μL was collected and transferred to 96-V bottom polypropylene plates and spun at 1250 rpm for 5 min at 4° C. to pellet the cells. The cell pellets were resuspended with hybridoma supernatant diluted 2-fold with cold flow buffer and incubated at 4° C. for 30 min. After incubation, cells were washed 2× with flow buffer and then labeled with anti-rat Alexa 647 secondary antibodies for 30 min at 4° C. Unbound secondary antibodies were removed by washing the cells 2× with flow buffer. […]
Antibody concentration was determined by OCTET™ using protein G biosensor. […] Cells were washed twice with flow buffer and analyzed using MACSQuant Analyzer 10 flow cytometer (Miltenyi Biotec, Bergisch Gladbach, Germany). […]

VTCN1 IgV domain = biological target: T1, VTCN1 IgV domain; assay: Flow cytometry binding to 293-VTCN1-IgV domain cells; conditions: IgV domain only
Description: as §1
(§4) Briefly, the 7C8 antibody was incubated with 293 cells, 293-VTCN1 (full length), 293-VTCN1-IgV domain, 293-VTCN1-IgC domain cell lines for 30 min at 4° C., unbound antibody was washed away, cells were then incubated with anti-human-Alexa488 conjugate, and analyzed by flow cytometry.
(§5) It was also assessed whether these antibodies bind to IgV or IgC domain of VTCN1 protein, using 293-VTCN1-IgV domain expressing cells and 293-VTCN1-IgC domain expressing cells using FACS analysis, as in Example 3.

SKBR3 cells = assay: Flow cytometry binding to SKBR3 cells (hybridoma screening); set-up: species or system human
Description: as §3, with “buffer. Cells were then resuspended in 200 μL of flow buffer containing PI to identify dead cells and remove from analysis.” for “buffer.”

ZR-75-1 cells = assay: Flow cytometry binding to ZR-75-1 cells; set-up: species or system human
Description: as §3, with “buffer. Cells were then resuspended in 200 μL of flow buffer containing PI to identify dead cells and remove from analysis.” for “buffer.”

293-VTCN1 (mouse) = biological target: T2, 293-VTCN1 (mouse); assay: Flow cytometry binding to 293-VTCN1 (mouse) cells
Description: as §1, §2

VTCN1 IgC domain = biological target: T3, VTCN1 IgC domain; assay: Flow cytometry binding to 293-VTCN1-IgC domain cells; conditions: IgC domain only
Description: as §1, §4, §5

293-VTCN1 cells = biological target: T4, 293-VTCN1 cells; assay: Flow cytometry binding to 293-VTCN1 cells (full length)
Description: For each hybridoma, unique recombinant heavy chains were paired with unique recombinant light chains. These plasmid pairs were transfected into CHO cells in 24-well plates. Twelve days later conditioned medium from each pairing was subjected to concentration determination by OCTET™ and screened by Flow cytometric analysis for binding to 293-VTCN1 cells.
as §4
Antibody concentration was determined by OCTET™ using protein G biosensor. 0.05 μg/ml, 0.1 μg/ml, 0.5 μg/ml, 1 μg/ml, 5 μg/ml, 10 μg/ml antibodies were incubated with live cells for 30 min. on ice, unbound antibodies were washed off, and a conjugated anti-mouse 2nd antibody was added to the wells for 15 min. Cells were washed twice with flow buffer and analyzed using MACSQuant Analyzer 10 flow cytometer (Miltenyi Biotec, Bergisch Gladbach, Germany). Results from flow cytometry assays indicate that mouse anti-VTCN1 antibodies are capable of binding to 293-VTCN1 cells and MX-1 cells.

binding to IgV domain of VTCN1 (VTCN1 IgV domain)	cross reactivity with mouse VTCN1 (293-VTCN1 (mouse))	binding to IgC domain of VTCN1 (VTCN1 IgC domain)	binding to 293-VTCN1 cells (full length VTCN1) (293-VTCN1 cells)	Molecule	VTCN1 and PD-L1 expression in monocytes (human monocytes)	cross reactivity with monkey VTCN1 (293-VTCN1 (monkey))	binding to MX-1 cells (MX-1 cells)	binding to SKBR3 cells (SKBR3 cells)	binding to ZR-75-1 cells (ZR-75-1 cells)
				IFNγ: cytokine added to human monocyte cultures (protein, UniProt P01579 24-161, looked up) Interferon gamma: QDPYVKEAENLKKYFNAGHSDVADNGTLFLGILKNWKEESDRKIMQSQIVSFYFKLFKNFKDDQSIQKSVETIKEDMNVKFFNSNKKKRDDFEKLTNYSVTDLNVQRKAIHELIQVMAELSPAAKTGKRKRSQMLFRG	VTCN1 and PD-L1 expression was induced				
does not bind	cross reacts	does not bind	binds to full length VTCN1	7C8: fully human VTCN1 antibody; VH SEQ ID NO: 212, VL SEQ ID NO: 216 (antibody, V domains shown) VH: QVQLQESGPGLVKPSETLSLTCAVSGYSISSGYYWGWIRQPPGKGLEWIGSIYHSGTTYYNPSLKSRVTISVDTSKNQFSLKLNSVTAADTAVYYCATYSSGWYFYFDYWGQGTLVTVSS VL: DIQLTQSPSFLSASVGDRVTITCRASQGISSYLAWYQQKPGKAPKLLIYVASTLQSGVPSRFSGSGSGTEFTLTISSLQPEDFATYYCQQLNSYPITFGQGTRLEIK		cross reacts	binds	binds	binds
